Among the data in patent publication US20070243582A1 are human IgG-binding activity per unit mass, relative to protein A manufactured by Repligen values, retold here.

The test deals with human IgG (Sigma) (human). The test can be described thus: ELISA: SPA′ coated at 5 µg/mL, human IgG 25 µg/mL, detection with HRP-labeled protein L, absorbance at 405 nm.

In the case of “SPA′ (part of protein A of Staphylococcus aureus Cowan I strain (JCM2179) except for the signal sequence (S domain) and the cell wall-binding domain (X domain)), produced by Brevibacillus choshinensis HPD31-OK having Spa′-pNK3260 (from UniProt P38507 37-327)”, the human IgG-binding activity per unit mass, relative to protein A manufactured by Repligen came out at 97%.
